Here are results for two sequences from US20190308168A1.

Conditions in all cases: scale: mg Gammanorm/ml chromatography matrix(gel)
Assay [1] deals with GAMMANORM 165 mg/ml (Octapharma no. 00 86 64), human normal immunoglobulin (human). Nature of the assay: column dynamic binding capacity at 10% breakthrough, after 1 h accumulated in 0.5 M NaOH.
The target is the same in assay [2]. Nature of the assay: column dynamic binding capacity at 10% breakthrough, after 15 h accumulated in 0.5 M NaOH.
Assay [3] has the same target. Nature of the assay: column dynamic binding capacity at 10% breakthrough, after 10 h accumulated in 0.5 M NaOH.
For assay [4] the target is unchanged. Nature of the assay: column dynamic binding capacity at 10% breakthrough, before NaOH incubation.
Assay [5] has the same target. Nature of the assay: column dynamic binding capacity at 10% breakthrough, after 20 h accumulated in 0.5 M NaOH.
Assay [6] shares this target. Nature of the assay: column dynamic binding capacity at 10% breakthrough, after 5 h accumulated in 0.5 M NaOH.
For assay [7] the target is unchanged. Nature of the assay: column dynamic binding capacity at 10% breakthrough, after 3 h accumulated in 0.5 M NaOH.

In assay [1], “MABSELECT SURE ligand (four domains originating from the domain B analogue Z, stabilized against high pH by protein engineering), coupled to agarose particles (designed binder)” displayed a Capacity after 1 h of 29.3. Further, the Capacity after 15 h in assay [2] stood at 27. The same sequence came in with a Capacity after 10 h in assay [3] of 27.9. In assay [4], this sequence registered a Capacity (Start Capacity 1) of 28.4 and a Capacity (Start Capacity 2) of 28.1. The same sequence showed a Capacity after 20 h in assay [5] of 25.9. For the same sequence, the Capacity after 5 h in assay [6] stood at 28.2. Besides, the Capacity after 3 h in assay [7] stood at 28.4.
Sequence “MABSELECT ligand (recombinant Protein A consisting of five homologous domains E, D, A, B, C), coupled to agarose particles (from UniProt P38507 37-327)” gave a Capacity after 1 h in assay [1] of 27. In assay [2], this sequence came in with a Capacity after 15 h of 12.5. For the same sequence, the Capacity after 10 h in assay [3] stood at 15.8. In assay [4], this sequence yielded a Capacity (Start Capacity 1) of 29 and a Capacity (Start Capacity 2) of 29. The sequence also displayed a Capacity after 20 h in assay [5] of 10.1. Besides, in assay [6], the Capacity after 5 h came out at 20.3. The sequence further showed a Capacity after 3 h in assay [7] of 23.1.
